Reference: patent publication US20090123940A1, “MOLECULES INVOLVED IN SYNAPTOGENESIS AND USES THEREFOR” (THE JOHNS HOPKINS UNIVERSITY, priority 2007, published 2009)
Marks after values point to notes of the source that are not given here.

Tests used:
[1] = biological target: T1, HA GluR1 surface diffusion (Homo sapiens, UniProt P42261, A320G/C323G/D322G/DEL281-317/N319G); assay: Single Quantum Dot Tracking of HA-tagged receptors on hippocampal neurons; assay type: cell-based, mouse; settings: 7 D. I. V., Narp transgene
T1 construct: expressed in transfected cells; host or cells: dissociated mouse hippocampal neurons (P1-3 pups)
Procedure: (§1) Single Quantum Dot (QD) Tracking. Hippocampal neurons were prepared from postnatal days 1-3 mouse pups and cultured in Banker Style conditions to 6 D. I. V., 8 D. I. V., or 11 D. I. V. Cultured hippocampal neurons were transfected as above. 0.5 μL of QD 655 mouse IgG (QuantumDot Corporation) was incubated with 0.8 μg of HA antibody (Santa Cruz) in a 20 μL volume of PBS for 1 hour at room temperature. Neurons were incubated in a 1:500 dilution of this QD solution for 15 minutes at 37° C., 5% CO2. After brief washes with culture media, the neurons were mounted on a live imaging chamber with culture media/10 mM Hepes. Transfected neurons were identified based on GFP fluorescence. 100 millisecond exposure images were collected from neurons at a frequency of 2.67 Hz for 60 seconds with a coolsnap HQ (Photometrix). The graphical and numerical representation of the trajectory of each QD was extracted from each stack of images using the Motion Analysis Package of Metamorph (Universal Imaging Corporation). The numerical representation of the trajectory was used to calculate a diffusion coefficient using MSD software. Analysis was performed blinded.
(§2) Narp reduces surface diffusion of GluR1 but not GluR1ΔNAR1. GluR1ΔNAR1 was used to examine the hypothesis that Narp and NP1 function to limit the diffusion of receptors, and thereby recruit GluR1 to synapses. As part of a validation of GluR1ΔNAR1 for cell biological studies it was confirmed that it retained agonist-dependent channel activity. […] The mobility of HA GluR1 relative to HA GluR1ΔNAR1 on the surface of neuronal dendrites were compared using 5 nm fluorescent Quantum Dots (QDs) and Single Quantum Dot Tracking (SQDT). Dissociated hippocampal cultures (DIV 6) were transfected with HA GluR1-IRES2-GFP or HA-GluR1ΔNAR1-IRES2-GFP. […] QD-HA-GluR1 and QD-HA-GluR1ΔNAR1 were visualized by live, time-lapse fluorescence imaging. The trajectories of QD-coupled receptors were determined by the position of the QD in each frame, and the receptor diffusion coefficients were calculated from QD trajectories over multiple trials. […]

[2] = biological target: T2, HA GluR1 surface diffusion (Homo sapiens, UniProt P42261); assay: as above; assay type: cell-based, mouse
T2 construct: expressed in transfected cells; host or cells: dissociated mouse hippocampal neurons (P1-3 pups)
Procedure: as §1, §2

[3] = tested on: GluR1 on cultured spinal neurons; assay: Co-culture of myc-Narp expressing 293 cells with spinal neurons; assay type: cell-based
Procedure: The neurons and transfected HEK-293 cells were cocultured for 48 hours and then fixed and stained for myc-Narp, GluR1 and synapsin. When contacts between myc-Narp expressing 293 cells and GluR1 expressing spinal neurons were examined for overlapping myc-Narp/GluR1 clusters, 64% (82/128) of the myc-Narp clusters in contact with the neuron overlapped with neuronal GluR1 clusters (mean of 2.6+/−1.5 overlapping myc-Narp/GluR1 clusters per 293-neuron contact).

cultured spinal neurons = assay: Narp overexpression in transfected cultured spinal neurons; assay type: cell-based
Procedure: In order to characterize the synaptic targeting of Narp in neurons, a C-terminal myc-tagged version of Narp (designated myc-Narp) was transfected into cultured spinal neurons (Dong et al., Nature 386:279-84, 1997). After 72 hours of expression, live staining with an anti-myc (mouse) antibody, followed by a FITC labeled anti-mouse secondary, was used to reveal the surface distribution of the transfected Narp. Subsequent staining of the same cells, after fixation and permeabilization, with an AMCA labeled anti-myc (rabbit) antibody was used to identify transfected neurons and their axons and dendrites, while GluR1 and GAD staining were used to identify excitatory and inhibitory synapses, respectively.
Given the presence of Narp on both pre and postsynaptic processes and the biochemical propensity of pentraxins to form head to head multimeric aggregates (Emsley et al., Nature 367, 338-45, 1994; Gewurz et al., Curr. Opin. Immunol. 7:54-64, 1995; Bottazzi et al., J. Biol. Chem. 272:32817-23, 1997), the possibility that Narp may function to facilitate the formation of excitatory synapses was explored. Thus, the number of synaptic GluR1 clusters (i.e., GluR1 clusters associated with synaptophysin staining) in transfected neurons over expressing myc-Narp was compared with the number of synaptic GluR1 clusters in untransfected neurons or in neurons transfected with a control plasmid containing the C-terminus of the NMDA receptor subunit NR1A (NR1CT).

[4] = tested on: GluR1 expressing 293 cells; assay: Co-culture of separately transfected 293 cells, intercellular clustering; assay type: cell-based
Text: To evaluate whether Narp could mediate intercellular aggregation of GluR1, similar to that expected at a synapse, myc-tagged Narp and GluR1 were expressed separately in 293 cells and subsequently co-cultured together. Under these conditions, surface Narp clusters on one cell could induce large surface GluR1 aggregates on another. In a total of 109 contacts between a GluR1 expressing transfected cell and a Narp expressing cell, there was a mean of 1.2+/−0.75 large overlapping GluR1/myc-Narp clusters at these sites of contact. […] Moreover, the number of GluR1 clusters at sites of contact with non-Narp expressing 293 cells was extremely low [0.07 R1 clusters per contact with a GluR2 expressing cell (n=76); 0.03 R1 clusters per contact with a Pick1/GluR2 expressing cell (n=58)]. The interaction between GluR1 and Narp required contact between the heterologous cells, as there was no evidence that Narp could diffuse from one cell and induce GluR1 clusters on another.

[5] = transfected neurons, +/- S.D., 5 experiments

T2 sequence (P42261 19-906): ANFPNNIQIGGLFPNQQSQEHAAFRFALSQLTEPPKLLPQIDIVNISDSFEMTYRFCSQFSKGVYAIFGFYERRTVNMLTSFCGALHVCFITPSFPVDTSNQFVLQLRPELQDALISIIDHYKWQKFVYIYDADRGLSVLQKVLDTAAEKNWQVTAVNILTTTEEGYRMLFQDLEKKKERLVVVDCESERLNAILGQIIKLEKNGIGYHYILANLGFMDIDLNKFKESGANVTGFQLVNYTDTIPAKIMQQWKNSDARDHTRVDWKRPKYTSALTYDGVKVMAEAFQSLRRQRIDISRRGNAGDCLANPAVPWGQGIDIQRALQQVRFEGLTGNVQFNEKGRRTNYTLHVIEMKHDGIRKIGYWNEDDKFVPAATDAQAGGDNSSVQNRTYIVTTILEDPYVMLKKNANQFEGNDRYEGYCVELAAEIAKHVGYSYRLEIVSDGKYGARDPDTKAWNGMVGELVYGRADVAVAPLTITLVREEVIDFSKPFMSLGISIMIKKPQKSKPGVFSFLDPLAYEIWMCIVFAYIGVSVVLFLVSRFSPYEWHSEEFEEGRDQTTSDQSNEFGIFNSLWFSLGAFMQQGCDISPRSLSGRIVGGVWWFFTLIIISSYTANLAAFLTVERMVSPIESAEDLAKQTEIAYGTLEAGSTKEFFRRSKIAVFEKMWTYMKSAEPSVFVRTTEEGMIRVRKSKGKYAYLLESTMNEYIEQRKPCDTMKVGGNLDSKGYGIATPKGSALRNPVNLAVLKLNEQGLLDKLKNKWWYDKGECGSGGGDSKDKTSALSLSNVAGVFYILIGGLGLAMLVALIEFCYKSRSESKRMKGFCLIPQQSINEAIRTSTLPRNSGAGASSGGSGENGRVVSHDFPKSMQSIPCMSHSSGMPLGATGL
T1 sequence (P42261 with tags, fused parts or gaps DEL281-317/N319G/A320G/D322G/C323G): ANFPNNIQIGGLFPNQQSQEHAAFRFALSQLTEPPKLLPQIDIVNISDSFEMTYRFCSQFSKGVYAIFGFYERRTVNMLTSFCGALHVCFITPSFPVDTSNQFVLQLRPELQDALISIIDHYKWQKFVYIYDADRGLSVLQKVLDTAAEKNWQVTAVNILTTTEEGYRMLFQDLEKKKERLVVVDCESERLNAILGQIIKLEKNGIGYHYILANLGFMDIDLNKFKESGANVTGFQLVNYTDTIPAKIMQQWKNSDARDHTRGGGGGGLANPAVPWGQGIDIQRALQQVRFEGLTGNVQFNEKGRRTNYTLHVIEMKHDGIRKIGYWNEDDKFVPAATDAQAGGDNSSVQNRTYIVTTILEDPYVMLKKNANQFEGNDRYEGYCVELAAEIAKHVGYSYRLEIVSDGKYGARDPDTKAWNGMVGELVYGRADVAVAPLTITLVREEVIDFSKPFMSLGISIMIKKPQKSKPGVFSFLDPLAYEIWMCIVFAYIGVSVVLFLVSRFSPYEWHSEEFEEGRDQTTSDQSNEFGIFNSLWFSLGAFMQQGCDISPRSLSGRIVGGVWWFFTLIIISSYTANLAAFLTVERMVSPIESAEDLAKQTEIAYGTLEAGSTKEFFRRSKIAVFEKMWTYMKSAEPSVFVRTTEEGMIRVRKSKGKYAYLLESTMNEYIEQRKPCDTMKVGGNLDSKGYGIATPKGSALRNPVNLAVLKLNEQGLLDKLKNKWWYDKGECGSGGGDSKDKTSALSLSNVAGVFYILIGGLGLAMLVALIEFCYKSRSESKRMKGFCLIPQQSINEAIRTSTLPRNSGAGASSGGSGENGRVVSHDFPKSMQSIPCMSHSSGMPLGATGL

B1: Narp: Neuronal activity regulated pentraxin (SEQ ID NO:2), expressed by transfection, also as C-terminal myc-tagged version (protein, listed as Rattus norvegicus)
chain: MLALLTAGVALAVAAGQAQDNPIPGSRFVCTALPPEAARAGCPLPAMPMQGGALSPEEELRAAVLHWRETVVQQKETLGAQREAIRELTSKLARCEGLAGGKARGTGATGKDTMGDLPRDPGHVVEQLSRSLQTLKDRLESLELQLHTNASNAGLPSDFREVLQRRLGELERQLLRKVAELEDEKSLLHNETSAHRQKTENTLNALLQRVTELERGNSAFKSPDAFKVSLPLRTNYLYGKIKKTLPELYAFTICLWLRSSASPGIGTPFSYAVPGQANEIVLIEWGNNPIELLINDKVAQLPLFVSDGKWHHICITWTTRDGMWEAFQDGEKLGTGENLAPWHPIKPGGVLILGQEQDTVGGRFDATQAFVGELSQFNIWDRVLRAQEIINIANCSTNMPGNIIPWVDNNVDVFGGASKWPVETCEERLLDL
modifications: optional C-terminal myc tag
B1 was tested, and the “HA-GluR1ΔNAR1 average diffusion rate” value [1] was “not significantly altered”, the “slowing of HA GluR1 average diffusion rate versus absence of Narp transgene” value ([2]; 7 D. I. V.) was 58% and the “slowing of HA GluR1 diffusion in the presence of the Narp transgene” value ([2]; 9 D. I. V.) was 44%. The “myc-Narp clusters in contact with the neuron overlapping with neuronal GluR1 clusters” value ([3]; 48 hours coculture) was 64%, the “overlapping myc-Narp/GluR1 clusters per 293-neuron contact” value ([3]; 48 hours coculture) was 2.6+/−1.5 and the “bioactivity of soluble Narp collected from the media (binding to transfected 293 cells)” value ([3]; soluble secreted form) was “no bioactivity”. For the same molecule, the “increase in number of synaptic GluR1 clusters compared to either control” value (cultured spinal neurons; five transfection experiments, p<0.01) was 1.9 fold, the “Synaptic GluR1 Clusters” value (cultured spinal neurons; [5]) was 13.0 +/− 3.8 ** and the “Synaptophysin Clusters” value (cultured spinal neurons; [5]) was 16.0 +/− 4.6 *. The Neuritic Length (cultured spinal neurons; transfected neurons, permeablized myc staining at 100X, 3 experiments) was 225 µm, the “GAD Clusters” value (cultured spinal neurons; transfected neurons, separate series of 3 experiments) was 5.9 +/− 3.9 and the “large overlapping GluR1/myc-Narp clusters at sites of contact” value ([4]; 109 contacts between a GluR1 expressing cell and a Narp expressing cell) was 1.2+/−0.75. The “coclusters of NR1 and NR2A” value ([4]; n=32 contacts) was 0, the “clusters of EAAC1 at sites of contact” value ([4]; n=121) was 0.04+/−0.05 and the “intercellular myc-Narp*GluR1 co-clusters” value ([4]; untagged Narp co-expressed with GluR1, co-cultured with cells expressing only myc-tagged Narp, n=124) was 2.6+/−1.4.
